The chains are these.
B1: E3 ubiquitin-protein ligase Midline-1, residues 172 to 214; numbered along this chain, O15344 (parent)
chain: GLMCLEHEDEKVNMYCVTDDQLICALCKLVGRHRDHQVAALSE

Consider 48 variants from the Human Domainome abundance scans (Beltran et al. 2025).

± gives the uncertainty stated by the source.

In this data set the parent is B1. Nature of the data set: abundance fitness (aPCA) (normalised: wild type 0, dead -1); higher = more abundant; growth selection in yeast, the domain comes from the species named. The settings on record: Homo sapiens.
As for GLMCLEHEDEKVNMYCVTDDQLICALCKLVGRHRDHQVWALSE [A39W], the abundance fitness is -0.424 ± 0.086. For the variant GLMCLEHEDEKVNMYCVTDDQLICALCKLVGRHRDHQVYALSE [A39Y], the abundance fitness is -0.393 ± 0.15. GLMCLEHEDEKVNMYCVTDDQLICALCKLVGRHRDHQVALLSE [A40L]: the abundance fitness is -0.158 ± 0.063. With GLMCLEHEDEKVNMYCVTDDQLICALCKLVGRHRDHQVADLSE [A40D], the abundance fitness was 0.031 ± 0.094. In the case of GLMCLEHEDEKVNMYCVTDDQLICALCKLVGRHRDHQVAPLSE [A40P], the abundance fitness is 0.228 ± 0.089. Take GLMCLEHEDEKVNMYCVTDDQLICALCKLVGRHRDHQVAHLSE [A40H]: the abundance fitness was -0.141 ± 0.24. Turning to GLMCLEHEDEKVNMYCVTDDQLICALCKLVGRHRDHQVAYLSE [A40Y], the abundance fitness is -0.572 ± 0.26. For the variant GLMCLEHEDEKVNMYCVTDDQLICALCKLVGRHRDHQVAILSE [A40I], the abundance fitness was -0.789 ± 0.29. In the case of GLMCLEHEDEKVNMYCVTDDQLICALCKLVGRHRDHQVAMLSE [A40M], the abundance fitness is -0.151 ± 0.14. Under GLMCLEHEDEKVNMYCVTDDQLICALCKLVGRHRDHQVATLSE [A40T] stands 0.035 ± 0.087; under GLMCLEHEDEKVNMYCVTDDQLICALCKLVGRHRDHQVASLSE [A40S], 0.065 ± 0.07; under GLMCLEHEDEKVNMYCVTDDQLICALCKLVGRHRDHQVAVLSE [A40V], -0.236 ± 0.06. In the case of GLMCLEHEDEKVNMYCVTDDQLICALCKLVGRHRDHQVARLSE [A40R], the abundance fitness is -0.019 ± 0.053. As for GLMCLEHEDEKVNMYCVTDDQLICALCKLVGRHRDHQVAKLSE [A40K], the abundance fitness was found to be 0.108 ± 0.075. In the case of GLMCLEHEDEKVNMYCVTDDQLICALCKLVGRHRDHQVAQLSE [A40Q], the abundance fitness stood at 0.082 ± 0.095. Under GLMCLEHEDEKVNMYCVTDDQLICALCKLVGRHRDHQVAFLSE [A40F] stands 0.099 ± 0.22; under GLMCLEHEDEKVNMYCVTDDQLICALCKLVGRHRDHQVAWLSE [A40W], -0.406 ± 0.064; under GLMCLEHEDEKVNMYCVTDDQLICALCKLVGRHRDHQVAGLSE [A40G], 0.046 ± 0.047. For GLMCLEHEDEKVNMYCVTDDQLICALCKLVGRHRDHQVAALPE [S42P], the abundance fitness came out at 0.056 ± 0.087.

As to GLMCLEHEDEKVNMYCVTDDQLICALCKLVGRHRDHQVAALCE [S42C], the abundance fitness turned out to be 0.012 ± 0.084. The value for GLMCLEHEDEKVNMYCVTDDQLICALCKLVGRHRDHQVAALHE [S42H] was 0.089 ± 0.069; that for GLMCLEHEDEKVNMYCVTDDQLICALCKLVGRHRDHQVAALTE [S42T] was 0.064 ± 0.075. On to GLMCLEHEDEKVNMYCVTDDQLICALCKLVGRHRDHQVAALME [S42M], for which the abundance fitness was -0.262 ± 0.082. For GLMCLEHEDEKVNMYCVTDDQLICALCKLVGRHRDHQVAALDE [S42D], the abundance fitness stood at 0.209 ± 0.07. With GLMCLEHEDEKVNMYCVTDDQLICALCKLVGRHRDHQVAALQE [S42Q], the abundance fitness is -0.049 ± 0.094. As for GLMCLEHEDEKVNMYCVTDDQLICALCKLVGRHRDHQVAALIE [S42I], the abundance fitness is -0.446 ± 0.13.

On to GLMCLEHEDEKVNMYCVTDDQLICALCKLVGRHRDHQVAALFE [S42F], for which the abundance fitness was -0.656 ± 0.27. For GLMCLEHEDEKVNMYCVTDDQLICALCKLVGRHRDHQVAALNE [S42N], the abundance fitness is 0.142 ± 0.092. Take GLMCLEHEDEKVNMYCVTDDQLICALCKLVGRHRDHQVAALGE [S42G]: the abundance fitness was determined as 0.078 ± 0.057. As for GLMCLEHEDEKVNMYCVTDDQLICALCKLVGRHRDHQVAALAE [S42A], the abundance fitness was -0.021 ± 0.051.

GLMCLEHEDEKVNMYCVTDDQLICALCKLVGRHRDHQVAALYE [S42Y]: the abundance fitness was -0.34 ± 0.085. Under GLMCLEHEDEKVNMYCVTDDQLICALCKLVGRHRDHQVAALRE [S42R] stands -0.127 ± 0.063; under GLMCLEHEDEKVNMYCVTDDQLICALCKLVGRHRDHQVAALEE [S42E], 0.119 ± 0.06. Under GLMCLEHEDEKVNMYCVTDDQLICALCKLVGRHRDHQVAALLE [S42L] stands -0.342 ± 0.082; under GLMCLEHEDEKVNMYCVTDDQLICALCKLVGRHRDHQVAAWSE [L41W], 0.001 ± 0.058. In the case of GLMCLEHEDEKVNMYCVTDDQLICALCKLVGRHRDHQVAASSE [L41S], the abundance fitness was determined as 0.134 ± 0.057. As for GLMCLEHEDEKVNMYCVTDDQLICALCKLVGRHRDHQVAAGSE [L41G], the abundance fitness is 0.051 ± 0.048. In the case of GLMCLEHEDEKVNMYCVTDDQLICALCKLVGRHRDHQVAAQSE [L41Q], the abundance fitness worked out at 0.136 ± 0.058. The value for GLMCLEHEDEKVNMYCVTDDQLICALCKLVGRHRDHQVAACSE [L41C] was 0.176 ± 0.09; that for GLMCLEHEDEKVNMYCVTDDQLICALCKLVGRHRDHQVAAFSE [L41F] was -0.132 ± 0.1. For the variant GLMCLEHEDEKVNMYCVTDDQLICALCKLVGRHRDHQVAANSE [L41N], the abundance fitness is -0.034 ± 0.099. With GLMCLEHEDEKVNMYCVTDDQLICALCKLVGRHRDHQVAAPSE [L41P], the abundance fitness was found to be 0.297 ± 0.061.

With GLMCLEHEDEKVNMYCVTDDQLICALCKLVGRHRDHQVAAYSE [L41Y], the abundance fitness is -0.467 ± 0.2. Consider GLMCLEHEDEKVNMYCVTDDQLICALCKLVGRHRDHQVAATSE [L41T], for which the abundance fitness was determined as 0.12 ± 0.057. In the case of GLMCLEHEDEKVNMYCVTDDQLICALCKLVGRHRDHQVAAVSE [L41V], the abundance fitness was -0.053 ± 0.054. In the case of GLMCLEHEDEKVNMYCVTDDQLICALCKLVGRHRDHQVAAMSE [L41M], the abundance fitness was found to be 0.069 ± 0.093.

Turning to GLMCLEHEDEKVNMYCVTDDQLICALCKLVGRHRDHQVAAHSE [L41H], the abundance fitness was 0.172 ± 0.075.

With GLMCLEHEDEKVNMYCVTDDQLICALCKLVGRHRDHQVAAKSE [L41K], the abundance fitness was 0.161 ± 0.058.
